# Measurements reported in patent US10450596.
# B1: GST-tagged KDM4C (BPS Bioscience) (protein)
# chain: EVAEVESPLNPSCKIMTFRPSMEEFREFNKYLAYMESKGAHRAGLAKVIPPKEWKPRQCYDDIDNLLIPAPIQQMVTGQSGLFTQYNIQKKAMTVKEFRQLANSGKYCTPRYLDYEDLERKYWKNLTFVAPIYGADINGSIYDEGVDEWNIARLNTVLDVVEEECGISIEGVNTPYLYFGMWKTTFAWHTEDMDLYSINYLHFGEPKSWYAIPPEHGKRLERLAQGFFPSSSQGCDAFLRHKMTLISPSVLKKYGIPFDKITQEAGEFMITFPYGYHAGFNHGFNCAESTNFATVRWIDYGKVAKLCTCRKDMVKISMDIFVRKFQPDRYQLWKQGKDIYTIDHTKPTPASTPEVKAWLQRRRKVRKASRS
# Molecular target: histone H3 trimethylated at lysine 9 (H3K9me3) in bulk calf thymus histones (Sigma)
protein,measurement,value
B1,in vitro histone demethylation assay; H3K9me3 assessed by Western blot,Addition of purified KDM4C to histone substrates resulted in demethylation of H3K9me3
